Experimental data reported in the DeepSol protein solubility set.

Experiment: soluble on expression in E. coli; label from the status in PepcDB or PDB records

Sequence	soluble on expression in E. coli
MNKIIKYIGASAVVCMMAGCTTNFEDFNTNPYQPSKVPASNLLSTMFNVYACPQQNACQEINCMWASFSGQVTATANWSFGKNIFAYYNASEGHNDSSWGRLYGYIYPSFFLVENSTEKKGVIYAMAQLTRVYGMQLLASLQGPIPYTQMKAGETEAPYDNEQTVWHAMFDDLDNAITILKSAATFGVNQDLAVVDQFYKGDCSKWLKFANTLKLRMAIRISGVEPEYAQTKAQEAVLGGVMESVGDSSYDTTNGGINENGYAIVSGWPEVRANACLVSYMNGYNDPRRPAYFTPQTQTAAGGYVGVRSGSAEIPEPTVYANYSKLFIATDKTLPQPVMYAAEAAFLRAEGALKGWNMGGDAKTFYEKGVRLSFEEFGVSGADDYLADATSIPGNYVDNLIAGHTGNNYTNQSSITIKWEDGADDAKKLERVLTQKWIACYPDPMNGWADFRRTGYPRIFPATESMNADCNTGRGQRRLRFTRSEYNNNKANVEAAVSMLSNGKDSNGTDLWWAMKENGTY	not soluble
MNKNIDTVREIITVASILIKFSREDIVENRANFIAFLNEIGVTHEGRKLNQNSFRKIVSELTQEDKKTLIDEFNEGFEGVYRYLEMYTNK	soluble
MNKPENFEEAIEIKRDPEDFSVEEIADIEPDPNGKYTIIKARVRDWDTNRIAAEIARRLHMSRKRVTFAGTKDKRAVKLQYFCINSADVDVASLSGIKDFEVIESFKSSHYLTLGDLIANHFKIRFYGIDPEMFRERYVHIISKGGFPNFFGDQRFGSRRRNTHEIGKLIIKGEYEEAVKKYIYDEKYDKESYRKHFIDTLDYKTALERFPHSLSFERSLIGYYARNGTFKGAFDSLPKNLTIMFVHAYQSYLFNRILDERLKIYGLNAVLPGDIAFPVDAYFNPDKSKPIEVNSYNREKISKLVSSDKIRISLPIFGYKTWIDNSDFGDVEYGILKEEGISQDDFKNKDFAYLSSSGDRRIISAKPINFSLENNVVEFTLGKGIYATVFLSSIGRLKENVYSDSEAELLEHHHHHH	soluble
MNKTMAKSLSVIIPACNEVDTISDVIQSVRPLNPVEIIVVANGCNDGTEDVADRLGCKVIKHTELLGNDVGRAVGAKHAIGDVLLFIDGDFAIPTSKLKLFLNPILYDQADVVLNNLDALFLKRQKTTSITVWRQILNAMLEREELKMNSLLDVPHALTKEVVQSIGYECFVNPIVAHLRLVQSKWRISRHCAIDVITPNKFRPFQHAAYGTNLSQSEKRMIGDHIEAVAERILSSDERGGYYDGNRKRDSVYHTLSFEEFYQGWGVTSDFYKGKQLSVVIPVQDEEKTIGNVIEELRKIEPFEIIVVVNGSSDKTKKIAKDKGATTIVYKEALGNDVGRSLGTYFAKGEIVLFIDGDFVIPASELYPFAKAIADGTDVALNDLNHYLDLRVPLHLVTAFKYALNLACDRKDLGVGSLIAVPNAFSRKCLKEIGYRSLLAPCVAQVKAILSGFEVACVSRVEVDKMNRIRPSEHFAKIGHPPAVLRIIGDHIEGLDQIIALTDNRGGFYDGNRKRDVLLEHHHHHH	not soluble
MNKTSKAYQPLLSSKAKIAIIGGGVAGSTIALRFAELGLDTTLIEKGPSLVNGPPICHLHAGGNLYREICDEQCLTLLKQSIDTVKVYPQSVNIRPTVIALPKTDNGQPEDLLPRLEKLRAKYSELVAQDSRNKVLGEPENYFKFYSRTELDALLDLPLPKTAKNDSDWLVAFAQHVDLDSLKFPVLLVQEYGLSAFRFAAIASLAIEGLPSCHLQTNKQVIAIVQQKNSLGWQVSTQALPQHQQSPTIIHQHFDYVINACGFKSGEIDDMVSAKRKRMVEFKAAYVAHWPQCQGLWPEIVFYGERGTPQGMAQLTPYPDGYFQLHGMTQDITLFDQGLVASSLESAQPQLAKRFIEKIDKKWPEQLVHNRTLGSIEHIAQFISAFSSAEVAAKPLFGAQQIPGEDADLRAADVSFYGQHYARAEIVKASSALAAGDAILKNLVDCGLIAALELGRYLTEHYFPVSQQCSEIEVTERAIMLAKQREYPIALAKNLLEHHHHHH	soluble
MNKYFYDGTPEGLVSAIGAILESGDDPEQTVLSIRQDTLFEEGLFLRTDSAVAEALFQRLRERAPDAVQTLWYFTMTEVDGLATSLLRYIALAFEHGDQVNGYLTHPDVKAVVATARKVGRELHRMKGLLRFEQLRDGTWLARMEPDHNVIQPLARHFSRRLRTQEWFIYDARRHSAAHWDGHALSFGTLERFSRPELSPEERVMQQLWQTFFKTIAIPERKNPRLQQSNMPAKYWKYLTEKQGE	not soluble
MNLKDLLAHRENLMDSAKRARSAITDDMDPADAAQAVENVKSIISEIESTDEAIAARRGVSDVTQKLKGLTITERGTENDSAASRSLGEHFVKAAGDRLKNQAAGAHIEYSVPEYQVKEDAHSSPKDLVEGWGTFYQR	soluble
MNLKPHCLALALACAGLAGPLPALAATPAAAQSAPVTVLASLPVTHALAERLLRDTEVKLQRVAPANLPASRQASFFAGRGAGGLAKAAGQADAVIDLRSIWSDDPLYPLARRSNIRIVEIDAARPVDGALPGIALRPGSDLHAYPWLNPTNLGRMADVLASDLERLAPGAAATIQANLATLKKQLLEATASNETRLAKADNLSVISLSERLGYLLAGLNLDPLDVEIQADDGWTETNIQAFAEELKSEDIALVLHHRQPPKPLADAIAASGARLIVVDTEAADPVAGLESDMKAIVEGLLAGKG	not soluble
MNLLQRALVFTGGHISRYQAVIAVNSVGKNARFYSTTDDNMAAPEESVVAKDEMKRFMVECMTKVGATESHATQLALVLLEGDIRGHYSHGLNRLDMYVRDIEQNVCKGDGEPIILKEKAGTAWVDGNNLLGPVVGNFCMDLAIEKAKNAGIGWVVAKGSNHYGIAGWYALRAMKKGMLGMSMTNTSPISFPTRSAVPALGTNPISLAAPGTGDDSFVLDMASTTVAIGKVELAARKENPVPLSWGVGEGGKETTDPTKVLYGGGLLPLGGVEVSGGYKGYGLSSMIEIFCGILAGAHWGPHVRKWMSTKSEADLGQCFVAIDPEAFAPGFADRLQDFMQTMRALPTSSPSFKVEVAGDMERRHEALVEQLGGIPYHKNQITFVNDLAAKLGVKTVDLVQ	not soluble
MNLNPAHINEPVQKEFLSVIKEYERVIYKVCYLYTTRNATLGDLYQEVILNLWKAYPKFRKECKISTWIYRIALNTCISFIRKEKNVPEIVALTREADWMTEEKDELTEMLRQLYRMINQLGQLDKSIVLLYLEEKSYEEIAEITGLTVTNVATKLSRIKDKLKKMKKEE	not soluble
MNLTDYVKEVSRQDFGIEFQHTASWNSRLQTTGGRFFPEDGHLDFNPKFCKKGDAGTFRKIVRHELCHYHLYYAGKGYRHGDKDFKDLLLQVNGVRYAPSIQSNTFYHYYQCESCGQVYQRKRRMNTKKYACGNCHGKLRHQNQSLEHHHHHH	not soluble
MNLVTDQDLLDVVNFFNRPLHALIAEVSKTTSDLELVRSTTQGIENICLLLDLVGTECIKDASAAKTSVLEHHHHHH	not soluble
MNMYRVIEMYGDFEPWWFLEGWEEDIVASRKFDQYYDALKYYKTCWFRLEQESPLYKSRSDLMTIFWDPEDQRWCDECDEYLQQYHSLALLQDEQVIPDEKLRSGYEKQTSQERNRSCRMKLKLEHHHHHH	soluble
MNNAKTAVTSRSVISLNSPIFLRQFYFEILNRLQVSSIIPKSKSEYVDAHMIRVSIEPQPTAFAYVFEYSTISTEPDNWNFAGASSKPEATFSILDPCRDYQFRVIIVIRSSNPAAVFDIIRPRPIPVQLPPFILTQPQISIEMPRVNNFNASGDLKLYVKWSLPYGYIDGDIYSYESPALYPIQCSTPEGEIPTPRIEIVKGGGRLAVWLPPSVLEARCRMWVEVRMLPRCVRLEPFNIQKNIEIDCSKNPSLDVCSKGR	not soluble
MNNFVKLGLTTGVVLSAIIPYGGVHAATEDLKVETKEDTFRTGNLTAPSQKSAENVVKDALKGKTEQALSSKQVNTESKVNYNVTQSRKSYDGTTLVRLQQTYEGRDVYGYQLTAHINDDGVLTSISGDSAQDLQQQEDLKQPIILSEEDAKKQLFKIYGDNLTFVEEPEIKQVVYVDENTNKATNAYQITFSASTPEYVSGTVLIDAFVGDLLKELVQKLGIQVDSSIVQSATANKSQDPSKLTGTGKDDLGMNRTFGITQRSDGTYTLADYSRGKGIETYTANYKDYNNYRRNVWGYLDDLVTSNSTNFTDPKAVSAHYLATKVYDFYKEKYSRNSFDNNGQKVISVVHGWNTNGKNIGNPKQWFNAFSNGAMLVYGDPIVRAFDVAGHEFTHAVTRNESGLEYAGEAGAINEALSDILGVAVEKYANNGKFNWTMGEQSGRIFRDMKNPSSISSRYPEDYRHYNNLPIDADHDYGGVHTNSSIINKVAYLIASGGNHNGVNVQGIGEDKMFDIFYYANTDELNMTSDFKELKEACIRVAMNLYGKDSLEVQAVQQAFKAAYI	not soluble
MNNLYRDLAPVTEAAWAEIELEAARTFKRHIAGRRVVDVSDPGGPVTAAVSTGRLIDVKAPTNGVIAHLRASKPLVRLRVPFTLSRNEIDDVERGSKDSDWEPVKEAAKKLAFVEDRTIFEGYSAASIEGIRSASSNPALTLPEDPREIPDVISQALSELRLAGVDGPYSVLLSADVYTKVSETSDHGYPIREHLNRLVDGDIIWAPAIDGAFVLTTRGGDFDLQLGTDVAIGYASHDTDTVRLYLQETLTFLCYTAEASVALSH	not soluble
MNNSINHKFHHISRAEYQELLAVSRGDAVADYIIDNVSILDLINGGEISGPIVIKGRYIAGVGAEYTDAPALQRIDAHGATAVPGFIDAHLHIESSMMTPVTFETATLPRGLTTVICDPHEIVNVMGEAGFAWFARCAEQARQNQYLQVSSCVPALEGCDVNGASFTLEQMLAWRDHPQVTGLAEMMDYPGVISGQNALLDKLDAFRHLTLDGHCPGLGGKELNAYIAAGIENCHESYQLEEGRRKLQLGMSLMIREGSAARNLNALAPLINEFNSPQCMLCTDDRNPWEIAHEGHIDALIRRLIEQHNVPLHVAYRVASWSTARHFGLNHLGLLAPGKQADIVLLSDARKVTVQQVLVKGEPIDAQTLQAEESAKLAQSAPPYGNTIARQPVSASDFALQFTPGKRYRVIDVIHNELITHSHSSVYSENGFERNDVCFIAVLERYGQRLAPACGLLGGFGLNEGALAATVSHDSHNIVVIGRSAEEMALAVNQVIQDGGGLCVVRNGQVQSHLPLPIAGLMSTDTAQSLAEQIDALKAAARECGPLPDEPFIQMAFLSLPVIPALKLTSQGLFDGEKFAFTTLEVTE	not soluble
MNNTEPWKKYVPETVSLYHVDYRENLNEREDLQEQCIRNNNMERLYETVMECYAEQEAESLLKILGEIKEKMAEEKRQEEFEEHREEITDLILSRSDTDPAEELIKNSAAVNMYYSPGEKIEERIGKASKTMSCYKVRRALKLKKGQFDTLIEELVDNATYGGELRIYFNAGFNELVTNDNGKDFRTIRFHRDVIVAVANSFNGSGYHISLPLDITFPFVRDRLFVDSQVRYSYATEVCGMCRDWCDSTSWETEYKTVRNTSRNRQKEKTLSTN	not soluble
MNPDLRKERASATFNPELITHILDGSPENTRRRREIENLILNDPDFQHEDYNFLTRSQRYEVAVKKSATMVKKMREYGISDPEEIMWFKNSVHRGHPEPLDLHLGMFLPTLLHQATAEQQERFFMPAWNLEITGTYAQTEMGHGTHLRGLETTATYDPKTQEFILNSPTVTSIKWWPGGLGKTSNHAIVLAQLITQGECYGLHAFVVPIREIGTHKPLPGITVGDIGPKFGYEEMDNGYLKMDNYRIPRENMLMKYAQVKPDGTYVKPLSNKLTYGTMVFVRSFLVGNAAQSLSKACTIAIRYSAVRRQSEIKQSEPEPQILDFQTQQYKLFPLLATAYAFHFVGRYMKETYLRINESIGQGDLSELPELHALTAGLKAFTTWTANAGIEECRMACGGHGYSHSSGIPNIYVTFTPACTFEGENTVMMLQTARFLMKIYDQVRSGKLVGGMVSYLNDLPSQRIQPQQVAVWPTMVDINSLEGLTEAYKLRAARLVEIAAKNLQTHVSHRKSKEVAWNLTSVDLVRASEAHCHYVVVKVFSDKLPKIQDKAVQAVLRNLCLLYSLYGISQKGGDFLEGSIITGAQLSQVNARILELLTLIRPNAVALVDAFDFKDMTLGSVLGRYDGNVYENLFEWAKKSPLNKTEVHESYHKHLKPLQSKL	soluble
